The target in experiment [1] is purified αVβ3 integrin (UniProt P06756). Put plainly: [125I]-T4 radioligand displacement on 2 µg purified αVβ3, native gel band intensity; LM609 at 1 µg/ml. Background: In a radioligand displacement assay an active substance lowers the binding of a labelled ligand.
Experiment [2] shares this target. Put plainly: [125I]-T4 radioligand displacement on purified αVβ3, native gel band intensity; LM609 at 2 µg/ml.
Experiment [3] shares this target. Put plainly: [125I]-T4 radioligand displacement on purified αVβ3, native gel band intensity; LM609 at 8 µg/ml.
Experiment [4] has the same target. Put plainly: [125I]-T4 radioligand displacement on purified αVβ3, native gel band intensity; LM609 at 4 µg/ml.
Experiment [5] shares this target. Put plainly: [125I]-T4 radioligand displacement on purified αVβ3, native gel band intensity; SC7312 at 8 µg/ml (figure legend; Example 17 prints 59%).
Experiment [6] has the same target. Kind of experiment: [125I]-T4 radioligand displacement on purified αVβ3, native gel band intensity; SC7312 at 8 µg/ml.
The target is the same in experiment [7]. Kind of experiment: [125I]-T4 radioligand displacement on purified αVβ3, native gel band intensity; SC7312 at 1 µg/ml.
The target is the same in experiment [8]. Kind of experiment: [125I]-T4 radioligand displacement on purified αVβ3, native gel band intensity; SC7312 at 4 µg/ml.
Experiment [9] shares this target. Kind of experiment: [125I]-T4 radioligand displacement on purified αVβ3, native gel band intensity; SC7312 at 2 µg/ml.

UniProt P06756, sequence (P06756 31-1048, form in doubt, chain 1 of 2): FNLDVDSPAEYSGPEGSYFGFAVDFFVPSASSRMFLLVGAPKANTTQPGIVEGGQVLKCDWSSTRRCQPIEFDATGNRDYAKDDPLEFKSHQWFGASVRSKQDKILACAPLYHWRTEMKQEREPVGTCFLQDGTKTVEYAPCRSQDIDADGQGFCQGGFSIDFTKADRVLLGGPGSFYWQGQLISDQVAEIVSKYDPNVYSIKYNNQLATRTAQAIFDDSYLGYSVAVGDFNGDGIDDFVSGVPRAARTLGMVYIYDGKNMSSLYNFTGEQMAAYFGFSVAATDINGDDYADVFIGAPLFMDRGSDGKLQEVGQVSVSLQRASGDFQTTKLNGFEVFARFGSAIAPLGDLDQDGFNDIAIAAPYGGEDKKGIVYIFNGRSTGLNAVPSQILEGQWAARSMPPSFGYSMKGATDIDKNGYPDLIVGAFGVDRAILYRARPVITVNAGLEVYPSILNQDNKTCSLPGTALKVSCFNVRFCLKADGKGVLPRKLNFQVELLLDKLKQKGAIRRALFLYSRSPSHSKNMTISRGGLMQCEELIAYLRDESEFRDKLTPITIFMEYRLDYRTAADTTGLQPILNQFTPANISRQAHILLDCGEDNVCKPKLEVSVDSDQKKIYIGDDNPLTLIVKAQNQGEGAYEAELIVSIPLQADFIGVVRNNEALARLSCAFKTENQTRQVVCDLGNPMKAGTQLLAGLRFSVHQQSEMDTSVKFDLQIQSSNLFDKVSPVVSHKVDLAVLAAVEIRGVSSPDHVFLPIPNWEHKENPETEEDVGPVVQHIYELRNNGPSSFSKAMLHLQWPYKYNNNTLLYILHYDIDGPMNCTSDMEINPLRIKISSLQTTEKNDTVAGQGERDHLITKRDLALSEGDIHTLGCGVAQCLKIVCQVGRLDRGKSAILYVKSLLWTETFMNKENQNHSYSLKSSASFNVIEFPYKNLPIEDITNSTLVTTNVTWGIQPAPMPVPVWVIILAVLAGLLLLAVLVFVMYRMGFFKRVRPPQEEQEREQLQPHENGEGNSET
UniProt P06756, sequence (P05106 27-788, form in doubt, chain 2 of 2, further chain): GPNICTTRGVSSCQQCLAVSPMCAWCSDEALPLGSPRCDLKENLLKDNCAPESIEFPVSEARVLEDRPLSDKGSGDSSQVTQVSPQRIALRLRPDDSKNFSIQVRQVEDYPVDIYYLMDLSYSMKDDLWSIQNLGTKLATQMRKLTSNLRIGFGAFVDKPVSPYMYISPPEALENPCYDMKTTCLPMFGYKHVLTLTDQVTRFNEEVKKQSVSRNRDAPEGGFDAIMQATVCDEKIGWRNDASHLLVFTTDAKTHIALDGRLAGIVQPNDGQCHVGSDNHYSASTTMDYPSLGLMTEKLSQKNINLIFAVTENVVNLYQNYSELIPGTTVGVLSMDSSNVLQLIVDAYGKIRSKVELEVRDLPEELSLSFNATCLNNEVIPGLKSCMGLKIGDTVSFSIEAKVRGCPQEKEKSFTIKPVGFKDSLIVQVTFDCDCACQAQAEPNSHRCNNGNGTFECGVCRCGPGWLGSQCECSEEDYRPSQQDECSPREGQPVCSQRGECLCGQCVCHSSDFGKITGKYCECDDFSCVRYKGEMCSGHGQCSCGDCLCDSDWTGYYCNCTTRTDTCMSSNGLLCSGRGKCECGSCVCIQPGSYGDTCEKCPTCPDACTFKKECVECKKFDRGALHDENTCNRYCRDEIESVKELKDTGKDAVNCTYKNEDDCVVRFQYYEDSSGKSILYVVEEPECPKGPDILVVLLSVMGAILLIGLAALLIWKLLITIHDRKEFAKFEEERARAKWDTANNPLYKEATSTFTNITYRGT

monoclonal antibody LM609 to αVβ3 gave a percent reduction of [125I]T4-αVβ3 complex formation in experiment [1] of 52%. Also, the percent reduction of [125I]T4-αVβ3 band intensity in [2] turned out to be 64%; in [3], 81%; in [4] it was 63%.

As to monoclonal antibody SC7312 to αVβ3, the percent reduction of T4 binding to αVβ3 in experiment [5] is 58%; in [6], 59%; in [7], 20%; in [8], 47%; in experiment [9], 46%.

For the origin of these results see patent publication US9579300.
